From patent publication US20130231277A1 (NEW YORK UNIVERSITY, published 2013)

Columns and labels:
[1] = molecular target: T1, ectodomain of murine βKlotho (F53 to L995 of SEQ ID NO: 218) with a C-terminal FLAG tag (murine, UniProt Q99N32 53-995); assay: SPR competition; FGF21 immobilized, fixed βKlotho ectodomain mixed with increasing FGF21 (FIG. 7A)
T1 construct: Expressed in HEK293 cells and purified from culture media; also called βKlotho ectodomain; not shown: C-terminal FLAG tag
T1 sequence: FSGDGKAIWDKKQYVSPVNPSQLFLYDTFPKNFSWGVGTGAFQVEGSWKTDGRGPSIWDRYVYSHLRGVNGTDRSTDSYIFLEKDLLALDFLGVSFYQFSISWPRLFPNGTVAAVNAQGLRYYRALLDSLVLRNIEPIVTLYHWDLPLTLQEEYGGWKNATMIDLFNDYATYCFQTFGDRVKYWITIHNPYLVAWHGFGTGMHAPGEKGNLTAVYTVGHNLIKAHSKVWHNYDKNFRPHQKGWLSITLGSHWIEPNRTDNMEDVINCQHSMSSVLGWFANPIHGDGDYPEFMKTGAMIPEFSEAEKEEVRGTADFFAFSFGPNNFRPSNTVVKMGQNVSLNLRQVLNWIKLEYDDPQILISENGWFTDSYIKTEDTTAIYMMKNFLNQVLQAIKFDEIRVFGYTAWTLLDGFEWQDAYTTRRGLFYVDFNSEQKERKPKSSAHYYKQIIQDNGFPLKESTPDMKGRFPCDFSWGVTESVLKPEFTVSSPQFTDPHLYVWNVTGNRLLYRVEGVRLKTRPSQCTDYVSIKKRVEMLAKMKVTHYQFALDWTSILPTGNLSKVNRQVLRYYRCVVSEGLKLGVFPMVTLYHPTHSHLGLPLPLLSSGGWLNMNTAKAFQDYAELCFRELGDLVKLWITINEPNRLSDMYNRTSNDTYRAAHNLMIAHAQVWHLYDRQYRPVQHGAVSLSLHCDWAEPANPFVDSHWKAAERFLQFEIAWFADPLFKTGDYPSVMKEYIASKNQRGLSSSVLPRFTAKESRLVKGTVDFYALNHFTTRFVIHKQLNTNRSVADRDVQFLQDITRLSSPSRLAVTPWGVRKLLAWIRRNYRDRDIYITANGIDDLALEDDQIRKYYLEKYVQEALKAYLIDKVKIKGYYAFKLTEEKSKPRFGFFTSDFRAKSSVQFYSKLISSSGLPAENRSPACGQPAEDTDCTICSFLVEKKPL
Method: Increasing concentrations of FGF21 were mixed with a fixed concentration of βKlotho ectodomain, and the mixtures were passed over a FGF21 chip. […] Increasing concentrations of FGF21²⁹⁻¹⁹⁰/FGF19¹⁹⁷⁻²¹⁶ chimera were mixed with a fixed concentration of βKlotho ectodomain, and the mixtures were passed over a FGF21 chip. […] The figure was created from the data shown in FIGS. 7A-B, which are representative of two independent experiments.
SPR experiments were performed on a Biacore 2000 instrument (Biacore AB), and all the protein-protein and protein-peptide interactions were studied at 25° C. in HBS-EP buffer (10 mM HEPES-NaOH, pH 7.4, 150 mM NaCl, 3 mM EDTA, 0.005% (v/v) polysorbate 20). Proteins were immobilized by amine coupling on flow channels of research grade CM5 chips (Biacore AB). Proteins were injected over a CM5 chip at a flow rate of 50 μl min⁻¹, and at the end of each protein injection (180 s), HBS-EP buffer (50 μl min⁻¹) was flowed over the chip to monitor dissociation for 180 s. In experiments where βKlotho binding to FGFR was analyzed, the chip surface was then regenerated by injecting 50 μl of 2.0 M NaCl in 10 mM sodium/potassium phosphate, pH 6.5. In experiments where α/βKlotho binding to FGF19/21/23 or binding of the FGFR1c-βKlotho complex to FGF21 was studied, 2.0 M NaCl in 10 mM sodium acetate, pH 4.5 was used for chip regeneration. […]

[2] = molecular target: T2, 1:1 complex of FGFR1c ligand-binding domain and αKlotho ectodomain (human; murine, UniProt P11362 142-365; O35082 35-982); assay: SPR; FGF21 immobilized, 1:1 FGFR1c-αKlotho complex passed over the chip (FIG. 1D)
T2 construct: also called FGFR1c-αKlotho complex; binary FGFR1c-αKlotho complex; not shown: C-terminal FLAG tag
T2 sequence 1: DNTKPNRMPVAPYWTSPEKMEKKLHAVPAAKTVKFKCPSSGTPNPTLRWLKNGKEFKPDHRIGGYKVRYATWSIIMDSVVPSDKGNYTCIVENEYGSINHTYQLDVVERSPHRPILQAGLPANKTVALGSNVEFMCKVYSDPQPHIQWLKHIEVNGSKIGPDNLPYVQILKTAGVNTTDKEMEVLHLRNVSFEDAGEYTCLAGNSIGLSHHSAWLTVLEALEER
T2 sequence 2: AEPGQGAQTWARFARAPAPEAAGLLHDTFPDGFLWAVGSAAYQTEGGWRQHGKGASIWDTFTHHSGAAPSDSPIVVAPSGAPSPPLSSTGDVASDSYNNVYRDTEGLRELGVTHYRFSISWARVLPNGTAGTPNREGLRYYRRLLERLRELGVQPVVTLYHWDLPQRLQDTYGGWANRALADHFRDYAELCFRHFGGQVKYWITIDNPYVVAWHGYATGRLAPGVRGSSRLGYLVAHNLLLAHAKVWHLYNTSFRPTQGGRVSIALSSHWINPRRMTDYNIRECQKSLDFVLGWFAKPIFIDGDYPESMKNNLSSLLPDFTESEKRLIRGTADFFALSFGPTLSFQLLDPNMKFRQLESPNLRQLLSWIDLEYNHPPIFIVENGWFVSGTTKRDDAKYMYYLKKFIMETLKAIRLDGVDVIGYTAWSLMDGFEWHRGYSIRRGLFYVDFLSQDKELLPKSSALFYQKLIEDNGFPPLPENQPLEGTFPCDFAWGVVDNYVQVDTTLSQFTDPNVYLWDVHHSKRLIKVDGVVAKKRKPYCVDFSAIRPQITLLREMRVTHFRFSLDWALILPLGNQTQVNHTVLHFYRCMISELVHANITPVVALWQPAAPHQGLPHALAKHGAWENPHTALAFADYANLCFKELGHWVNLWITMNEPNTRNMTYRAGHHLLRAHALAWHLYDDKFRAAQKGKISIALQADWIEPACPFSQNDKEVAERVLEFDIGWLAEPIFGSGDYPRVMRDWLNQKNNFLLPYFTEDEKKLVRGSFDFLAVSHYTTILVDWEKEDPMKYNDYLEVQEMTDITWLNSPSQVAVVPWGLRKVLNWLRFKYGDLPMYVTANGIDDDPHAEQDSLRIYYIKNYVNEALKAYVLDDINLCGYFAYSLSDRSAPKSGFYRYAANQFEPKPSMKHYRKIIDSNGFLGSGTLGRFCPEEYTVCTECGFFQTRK

[3] = molecular target: FGFR1c endogenously expressed by HEK293 cells transiently transfected with murine βKlotho (UniProt P11362 22-822); assay: cell-based or functional assay
Sequence of FGFR1c endogenously expressed by HEK293 cells transiently transfected with murine βKlotho (P11362 22-822): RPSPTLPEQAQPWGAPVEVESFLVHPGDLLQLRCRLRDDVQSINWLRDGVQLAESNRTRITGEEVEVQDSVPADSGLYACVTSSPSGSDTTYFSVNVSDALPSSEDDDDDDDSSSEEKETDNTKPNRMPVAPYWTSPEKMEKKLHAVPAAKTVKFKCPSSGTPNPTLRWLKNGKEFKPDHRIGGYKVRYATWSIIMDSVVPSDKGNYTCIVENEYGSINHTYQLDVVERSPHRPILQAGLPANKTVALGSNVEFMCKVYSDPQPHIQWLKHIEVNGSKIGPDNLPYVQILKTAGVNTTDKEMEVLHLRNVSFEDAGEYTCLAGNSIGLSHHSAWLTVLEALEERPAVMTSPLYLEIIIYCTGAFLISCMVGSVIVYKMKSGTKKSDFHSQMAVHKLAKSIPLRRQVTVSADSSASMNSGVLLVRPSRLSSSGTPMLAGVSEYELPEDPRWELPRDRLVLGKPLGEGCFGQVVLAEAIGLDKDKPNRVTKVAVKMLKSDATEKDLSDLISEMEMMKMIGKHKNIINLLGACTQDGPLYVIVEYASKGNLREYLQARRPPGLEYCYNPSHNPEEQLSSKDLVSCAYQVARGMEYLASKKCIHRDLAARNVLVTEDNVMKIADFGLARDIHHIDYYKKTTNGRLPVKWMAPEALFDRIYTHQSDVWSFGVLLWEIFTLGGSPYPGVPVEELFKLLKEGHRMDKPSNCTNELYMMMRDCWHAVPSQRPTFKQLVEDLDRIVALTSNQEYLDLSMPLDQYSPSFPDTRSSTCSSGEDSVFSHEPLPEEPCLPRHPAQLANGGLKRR

binding result [1]: binds
binding result [2]: no binding
Induction of Egr1 protein expression (immunoblot, HEK293 cells co-expressing FGFR1c and βKlotho) [3]: > 3 fold greater concentration than the 30 ng ml^-1 of the Q104M mutant
B1: human FGF21, secreted bioactive form (H29 to S209 of SEQ ID NO: 100) (ligand)
chain: HPIPDSSPLLQFGGQVRQRYLYTDDAQQTEAHLEIREDGTVGGAADQSPESLLQLKALKPGVIQILGVKTSRFLCQRPDGALYGSLHFDPEACSFRELLLEDGYNVYQSEAHGLPLHLPGNKSPHRDPAPRGPARFLPLPGLPPALPEPPGILAPQPPDVGSSDPLSMVGPSQGRSPSYAS
notes: Used both immobilized on the SPR chip and in solution; also called wild-type FGF21; native FGF21
